The data set has as its target SARS-CoV-2 spike RBD (called RBD S glycoprotein) (SARS-CoV-2 (2019-nCoV), UniProt P0DTC2 319-541). The data set can be described thus: direct ELONA. To be noted: protein: commercial; label: 5'-biotin.

Here are results for one molecule from PMC9559407, “Enzyme linked oligonucleotide assay for the sensitive detection of SARS-CoV-2 variants”.

B1: CoV2-RBD-1C (ssDNA)
DNA: CAGCACCGACCTTGTGCTTTGGGAGTGCTGGTCCAAGGGCGTTAATGGACA
For the molecule B1, the binding result was “binds”.
